Data reported in US20220048967A1 (published 2022).
Numbered stars: 1 amine (or outer) side, 2 acyl side, 3 side chain; on linkers, the order of the positions; unused ones are H or OH. Square brackets hold non-standard residues; d marks the D form. Side chains are listed from the residue outwards. Ends that are not written are not given here. * marks the point of attachment. C20 diacid = O=C(O)CCCCCCCCCCCCCCCCCCC(=O)*; γGlu = O=C(O)[C@H](CCC(=O)[*:2])N[*:1]; AEEA = NCCOCCOCC(=O)O; Aib = CC(C)(N)C(=O)O

T1: human GIP receptor (human, UniProt P48546 22-466)
T1 sequence (looked up): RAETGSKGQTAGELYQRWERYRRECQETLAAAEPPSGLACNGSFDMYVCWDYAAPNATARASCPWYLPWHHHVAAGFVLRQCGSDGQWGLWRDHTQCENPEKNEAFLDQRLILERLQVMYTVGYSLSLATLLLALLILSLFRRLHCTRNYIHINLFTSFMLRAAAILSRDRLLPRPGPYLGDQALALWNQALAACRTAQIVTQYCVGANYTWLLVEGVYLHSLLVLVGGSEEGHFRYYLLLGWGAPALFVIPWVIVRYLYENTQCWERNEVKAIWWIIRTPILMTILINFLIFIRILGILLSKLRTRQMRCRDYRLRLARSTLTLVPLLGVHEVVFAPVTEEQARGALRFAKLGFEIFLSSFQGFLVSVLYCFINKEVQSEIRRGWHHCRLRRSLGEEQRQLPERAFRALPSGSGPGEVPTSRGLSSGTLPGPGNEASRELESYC


Assays:
human GLP-1 receptor = human GLP-1 receptor (human, UniProt P43220 24-463); assay: cell-based or functional assay
human GIP receptor = target: T1, human GIP receptor; assay: cell-based or functional assay

Row | Binder | hGLP1R cAMP EC50 ratio (human GLP-1 receptor) | hGLP1R cAMP Rel EC50 (human GLP-1 receptor) [nM] | hGIPR cAMP EC50 ratio (human GIP receptor) | hGIPR cAMP Rel EC50 (human GIP receptor) [nM]
1 | Y[Aib]EGTFTSDYSILLDKIAQ[Aib]AFK([AEEA-AEEA-γGlu-C20 diacid])EYLIEGGPSSGAPPPS-NH2 [Example 33] | 0.000256 | 251 | 0.00222 | 63.3
2 | Y[Aib]EGTFTSDYSILLDKIAQ[Aib]K([AEEA-AEEA-γGlu-C20 diacid])FIEYLIEGGPSSGAPPPS-NH2 (N-terminus assumed; SMILES CC[C@H](C)[C@H](NC(=O)[C@H](CCCCN)NC(=O)[C@H](CC(=O)O)NC(=O)[C@H](CC(C)C)NC(=O)[C@H](CC(C)C)NC(=O)[C@@H](NC(=O)[C@H](CO)NC(=O)[C@H](Cc1ccc(O)cc1)NC(=O)[C@H](CC(=O)O)NC(=O)[C@H](CO)NC(=O)[C@@H](NC(=O)[C@H](Cc1ccccc1)NC(=O)[C@@H](NC(=O)CNC(=O)[C@H](CCC(=O)O)NC(=O)C(C)(C)NC(=O)[C@@H](N)Cc1ccc(O)cc1)[C@@H](C)O)[C@@H](C)O)[C@@H](C)CC)C(=O)N[C@@H](C)C(=O)N[C@@H](CCC(N)=O)C(=O)NC(C)(C)C(=O)N[C@@H](CCCCNC(=O)COCCOCCNC(=O)COCCOCCNC(=O)CC[C@H](NC(=O)CCCCCCCCCCCCCCCCCCC(=O)O)C(=O)O)C(=O)N[C@@H](Cc1ccccc1)C(=O)N[C@H](C(=O)N[C@@H](CCC(=O)O)C(=O)N[C@@H](Cc1ccc(O)cc1)C(=O)N[C@@H](CC(C)C)C(=O)N[C@H](C(=O)N[C@@H](CCC(=O)O)C(=O)NCC(=O)NCC(=O)N1CCC[C@H]1C(=O)N[C@@H](CO)C(=O)N[C@@H](CO)C(=O)NCC(=O)N[C@@H](C)C(=O)N1CCC[C@H]1C(=O)N1CCC[C@H]1C(=O)N1CCC[C@H]1C(=O)N[C@@H](CO)C(N)=O)[C@@H](C)CC)[C@@H](C)CC) [Example 32] | 0.136 | 0.498 | 0.84 | 0.179
3 | Y[Aib]EGTFTSDYSILLDKIAQ[Aib]AFIEYLIK([AEEA-AEEA-γGlu-C20 diacid])GGPSSGAPPPS-NH2 (N-terminus assumed; SMILES CC[C@H](C)[C@H](NC(=O)[C@H](CCCCN)NC(=O)[C@H](CC(=O)O)NC(=O)[C@H](CC(C)C)NC(=O)[C@H](CC(C)C)NC(=O)[C@@H](NC(=O)[C@H](CO)NC(=O)[C@H](Cc1ccc(O)cc1)NC(=O)[C@H](CC(=O)O)NC(=O)[C@H](CO)NC(=O)[C@@H](NC(=O)[C@H](Cc1ccccc1)NC(=O)[C@@H](NC(=O)CNC(=O)[C@H](CCC(=O)O)NC(=O)C(C)(C)NC(=O)[C@@H](N)Cc1ccc(O)cc1)[C@@H](C)O)[C@@H](C)O)[C@@H](C)CC)C(=O)N[C@@H](C)C(=O)N[C@@H](CCC(N)=O)C(=O)NC(C)(C)C(=O)N[C@@H](C)C(=O)N[C@@H](Cc1ccccc1)C(=O)N[C@H](C(=O)N[C@@H](CCC(=O)O)C(=O)N[C@@H](Cc1ccc(O)cc1)C(=O)N[C@@H](CC(C)C)C(=O)N[C@H](C(=O)N[C@@H](CCCCNC(=O)COCCOCCNC(=O)COCCOCCNC(=O)CC[C@H](NC(=O)CCCCCCCCCCCCCCCCCCC(=O)O)C(=O)O)C(=O)NCC(=O)NCC(=O)N1CCC[C@H]1C(=O)N[C@@H](CO)C(=O)N[C@@H](CO)C(=O)NCC(=O)N[C@@H](C)C(=O)N1CCC[C@H]1C(=O)N1CCC[C@H]1C(=O)N1CCC[C@H]1C(=O)N[C@@H](CO)C(N)=O)[C@@H](C)CC)[C@@H](C)CC) [Example 37] | 0.0533 | 1.15 | 0.532 | 0.269
4 | Y[Aib]EGTFTSDYSILLDKIAQ[Aib]AFIEYLK([AEEA-AEEA-γGlu-C20 diacid])EGGPSSGAPPPS-NH2 (N-terminus assumed; SMILES CC[C@H](C)[C@H](NC(=O)[C@H](CCCCN)NC(=O)[C@H](CC(=O)O)NC(=O)[C@H](CC(C)C)NC(=O)[C@H](CC(C)C)NC(=O)[C@@H](NC(=O)[C@H](CO)NC(=O)[C@H](Cc1ccc(O)cc1)NC(=O)[C@H](CC(=O)O)NC(=O)[C@H](CO)NC(=O)[C@@H](NC(=O)[C@H](Cc1ccccc1)NC(=O)[C@@H](NC(=O)CNC(=O)[C@H](CCC(=O)O)NC(=O)C(C)(C)NC(=O)[C@@H](N)Cc1ccc(O)cc1)[C@@H](C)O)[C@@H](C)O)[C@@H](C)CC)C(=O)N[C@@H](C)C(=O)N[C@@H](CCC(N)=O)C(=O)NC(C)(C)C(=O)N[C@@H](C)C(=O)N[C@@H](Cc1ccccc1)C(=O)N[C@H](C(=O)N[C@@H](CCC(=O)O)C(=O)N[C@@H](Cc1ccc(O)cc1)C(=O)N[C@@H](CC(C)C)C(=O)N[C@@H](CCCCNC(=O)COCCOCCNC(=O)COCCOCCNC(=O)CC[C@H](NC(=O)CCCCCCCCCCCCCCCCCCC(=O)O)C(=O)O)C(=O)N[C@@H](CCC(=O)O)C(=O)NCC(=O)NCC(=O)N1CCC[C@H]1C(=O)N[C@@H](CO)C(=O)N[C@@H](CO)C(=O)NCC(=O)N[C@@H](C)C(=O)N1CCC[C@H]1C(=O)N1CCC[C@H]1C(=O)N1CCC[C@H]1C(=O)N[C@@H](CO)C(N)=O)[C@@H](C)CC) [Example 36] | 0.0268 | 2.29 | 0.458 | 0.309
5 | Y[Aib]EGTFTSDYSILLDKIAQ[Aib]AFIKYLIEGGPSSGAPPPS-NH2 (not fully specified (residue 24)) [Example 34] | 0.0392 | 1.56 | 0.393 | 0.36
6 | Y[Aib]EGTFTSDYSILLDKIAQ[Aib]AFIEYK([AEEA-AEEA-γGlu-C20 diacid])IEGGPSSGAPPPS-NH2 (N-terminus assumed; SMILES CC[C@H](C)[C@H](NC(=O)[C@H](CCCCN)NC(=O)[C@H](CC(=O)O)NC(=O)[C@H](CC(C)C)NC(=O)[C@H](CC(C)C)NC(=O)[C@@H](NC(=O)[C@H](CO)NC(=O)[C@H](Cc1ccc(O)cc1)NC(=O)[C@H](CC(=O)O)NC(=O)[C@H](CO)NC(=O)[C@@H](NC(=O)[C@H](Cc1ccccc1)NC(=O)[C@@H](NC(=O)CNC(=O)[C@H](CCC(=O)O)NC(=O)C(C)(C)NC(=O)[C@@H](N)Cc1ccc(O)cc1)[C@@H](C)O)[C@@H](C)O)[C@@H](C)CC)C(=O)N[C@@H](C)C(=O)N[C@@H](CCC(N)=O)C(=O)NC(C)(C)C(=O)N[C@@H](C)C(=O)N[C@@H](Cc1ccccc1)C(=O)N[C@H](C(=O)N[C@@H](CCC(=O)O)C(=O)N[C@@H](Cc1ccc(O)cc1)C(=O)N[C@@H](CCCCNC(=O)COCCOCCNC(=O)COCCOCCNC(=O)CC[C@H](NC(=O)CCCCCCCCCCCCCCCCCCC(=O)O)C(=O)O)C(=O)N[C@H](C(=O)N[C@@H](CCC(=O)O)C(=O)NCC(=O)NCC(=O)N1CCC[C@H]1C(=O)N[C@@H](CO)C(=O)N[C@@H](CO)C(=O)NCC(=O)N[C@@H](C)C(=O)N1CCC[C@H]1C(=O)N1CCC[C@H]1C(=O)N1CCC[C@H]1C(=O)N[C@@H](CO)C(N)=O)[C@@H](C)CC)[C@@H](C)CC) [Example 35] | 0.00728 | 8.38 | 1.58 | 0.0905
